From patent US20220273751A1 (GPCR THERAPEUTICS, published 2022)

Biological target: ADRB2 (Adrenoceptor Beta 2) (human, UniProt P07550 1-413)
Assay: cell-based or functional assay

calcium response on co-stimulation with CXCL12 (200 nM) and formoterol (10 uM) relative to CXCL12 alone, HL-60 cells: ~8 fold
calcium response on co-stimulation with CXCL12 (200 nM) and formoterol (10 uM) relative to CXCL12 alone, U937 cells: ~4 fold
B1: CXCR4 (C-X-C Motif Chemokine Receptor 4) (receptor, human, UniProt P61073 1-352, looked up)
chain: MEGISIYTSDNYTEEMGSGDYDSMKEPCFREENANFNKIFLPTIYSIIFLTGIVGNGLVILVMGYQKKLRSMTDKYRLHLSVADLLFVITLPFWAVDAVANWYFGNFLCKAVHVIYTVNLYSSVLILAFISLDRYLAIVHATNSQRPRKLLAEKVVYVGVWIPALLLTIPDFIFANVSEADDRYICDRFYPNDLWVVVFQFQHIMVGLILPGIVILSCYCIIISKLSHSKGHQKRKALKTTVILILAFFACWLPYYIGISIDSFILLEIIKQGCEFENTVHKWISITEALAFFHCCLNPILYAFLGAKFKTSAQHALTSVSRGSSLKILSKGKRGGHSSVSTESESSSFHSS
